For 1 substance, Kd results are on record in PMC7530888.

pKd: −log10 of the molar value.

This assay concerns the target GST-tagged MtbXthA (M. tuberculosis class II AP-endonuclease/3'-5' exonuclease XthA) (M. tuberculosis) (UniProt P96273). Kind of assay: SPR.

With “BRCT domain of MtbLigA, His-tagged (from UniProt P9WNV1 1-691) (domain or fragment)”, the pKd was 7.17.
